Measured values from patent US6699839B1, “Lantibiotic from Streptococcus mutans, method of production and use thereof” (Universite Laval, priority 1997, dated 2004).

Experiments:
[1] = test system: Flavobacterium capsulatum; assay: Growth inhibition; assay type: cell-based; conditions: a Gram-negative strain
[2] = Stability of activity to enzymes; assay type: physicochemical
[3] = test system: Staphylococcus haemolyticus 2344; assay: Sensitivity titer of multi-drug resistant staphylococci clinical isolates; assay type: cell-based; conditions: resistant to AM-K-S-CF-E-P-Cl-TE
Protocol: (§1) Trypticase Soy Agar (Difco Laboratories, Detroit, Mich.) plates enriched with 0.3% yeast extract were overlaid with 5 ml of melted TSAYE containing a standardized suspension (0.2 ml of an exponentially growing culture at an optical density of 0.1 at 600 nm) of Micrococcus luteus ATCC 272 (ATCC, Rockville, Md.). In order to assess the activity of mutacin samples, two-fold dilutions were prepared in 0.11% TFA (Sigma Chemical Co., St. Louis, Mo.) and 5 μl of each dilution deposited on top of the indicator plates. Mutacin activity was expressed in arbitrary units, which correspond to the reciprocal of the last dilution giving a clear inhibition zone against M. luteus after 24 h of incubation at 37° C. under aerobic conditions (Parrot et al., 1989, Can. J. Microbiol. 35:366-372).
(§2) The sensitivity of multi-drug resistant strains to mutacin B-Ny266 purified to homogeneity was assessed. In parallel the sensitivity of these strains to nisin was determined.

[4] = test system: Staphylococcus epidermidis 3176; assay: as above; assay type: cell-based; conditions: resistant to AM-GM-K-CF-E-P-Cl
Protocol: as §1, §2

[5] = test system: Staphylococcus epidermidis 1656; assay: as above; assay type: cell-based; conditions: resistant to AM-K-S-CF-E-P-Cl-TE
Protocol: as §1, §2

Neisseria subflava = assay: Growth inhibition; assay type: cell-based
Bacillus cereus = assay: Growth inhibition; assay type: cell-based
[6] = Heat stability of activity; assay type: physicochemical
[7] = test system: Micrococcus luteus ATCC 272; assay: Sensitivity titer on a lawn of the tested strain (control strain); assay type: cell-based; conditions: Micrococcus luteus ATCC 272 (control); antibiotic resistance: None
Protocol: as §1, §2

[8] = Polarity calculation from RP-HPLC elution; assay type: physicochemical; conditions: calculated from elution at 33.3% acetonitrile, RP-HPLC C18 (Snyder formula)
Protocol: The polarity was calculated from the percentage of acetonitrile at which the substance eluted according to the formula given by Snyder (Snyder, L. R., 1978, Chromatogr. Sci. 16:223-234).

[9] = test system: Clostridium bifermentants; assay: Growth inhibition; assay type: cell-based

What does the source list for “Mutacin B-Ny266: type A lantibiotic produced by Streptococcus mutans B-Ny266; F-K-A-W-U-F-A-Abu-P-G-A-A-K-O-G-A-F-N-U-Y-A-SADC”?
growth inhibition [1]: inhibit; activity after enzyme treatment ([2]; alpha-chymotrypsin): destroyed; resistance to enzymes ([2]; many enzymes): resistant; activity after enzyme treatment ([2]; papain): destroyed; activity after enzyme treatment ([2]; pronase E): destroyed; activity after enzyme treatment ([2]; proteinase K): destroyed; activity after enzyme treatment ([2]; trypsin): destroyed; titer (highest dilution producing an inhibitory zone on a lawn of the tested strain) [3]: 16; titer (highest dilution producing an inhibitory zone on a lawn of the tested strain) [4]: 16; titer (highest dilution producing an inhibitory zone on a lawn of the tested strain) [5]: 16; growth inhibition (Neisseria subflava): inhibits the growth; growth inhibition (Bacillus cereus): inhibits the growth; resistance to temperature ([6]; 100° C. for 30 min): resistant; activity after heat treatment ([6]; 121° C. for 30 min): destroyed; titer (highest dilution producing an inhibitory zone on a lawn of the tested strain) [7]: 64; polarity [8]: 8.067; growth inhibition [9]: inhibits the growth
